Assay results: IntAct's records for PubMed 17889823

B1: Programmed cell death protein 6 (Mus musculus), P12815 (parent)
chain: MAAYSYRPGPGGGPGPAAGAALPDQSFLWNVFQRVDKDRSGVISDNELQQALSNGTWTPFNPVTVRSIISMFDRENKAGVNFSEFTGVWKYITDWQNVFRTYDRDNSGMIDKNELKQALSGFGYRLSDQFHDILIRKFDRQGRGQIAFDDFIQGCIVLQRLTDIFRRYDTDQDGWIQVSYEQYLSMVFSIV
partner: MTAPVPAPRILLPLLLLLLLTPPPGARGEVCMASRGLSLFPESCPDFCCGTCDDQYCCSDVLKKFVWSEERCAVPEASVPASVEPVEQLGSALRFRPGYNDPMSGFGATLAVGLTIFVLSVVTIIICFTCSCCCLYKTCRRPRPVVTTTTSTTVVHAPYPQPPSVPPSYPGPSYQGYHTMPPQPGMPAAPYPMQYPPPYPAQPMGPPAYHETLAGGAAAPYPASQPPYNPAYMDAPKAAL

Variants of: B1
Conditions: with shsa5_human SHISA5, Q8N114

Question: Which “effect of a mutation on the interaction” value does the source give for E47D;E114D here?
Answer: disrupting interaction strength
